Biological target: recombinant nucleoprotein (NP) protein derived from influenza virus H1N1 to which a Flag tag was fus (influenza virus H1N1)
Sequence (P03466 whole entry): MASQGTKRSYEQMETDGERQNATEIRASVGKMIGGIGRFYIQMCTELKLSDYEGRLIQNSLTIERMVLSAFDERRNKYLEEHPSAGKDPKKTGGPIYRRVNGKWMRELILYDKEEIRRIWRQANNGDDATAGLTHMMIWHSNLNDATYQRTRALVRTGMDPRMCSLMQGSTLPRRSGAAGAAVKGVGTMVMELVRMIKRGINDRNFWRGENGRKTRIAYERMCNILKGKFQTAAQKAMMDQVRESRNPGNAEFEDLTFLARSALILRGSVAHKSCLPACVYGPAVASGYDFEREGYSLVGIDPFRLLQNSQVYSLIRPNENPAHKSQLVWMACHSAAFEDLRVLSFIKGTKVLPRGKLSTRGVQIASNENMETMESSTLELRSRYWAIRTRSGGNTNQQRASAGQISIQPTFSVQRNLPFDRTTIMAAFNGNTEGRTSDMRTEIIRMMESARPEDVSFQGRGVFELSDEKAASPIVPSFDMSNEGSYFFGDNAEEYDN

B1: VHH antibody consisting of the amino acid sequence represented by SEQ ID NO: 08 (VHH)
VHH: QVQLVESGGGLVQAGGSLRLSCAASRTIFNPNVMGWYRQAPGKQRELVADISLSGSTNYADSVKGRFTISRDNAKNTMYLQMNSLKPEDTAVYYCNTNAISGAPGRYWGQGTQVTVSS
Kd: 0.236 nM

Reference: US20170349647A1 (PANASONIC INTELLECTUAL PROPERTY MANAGEMENT, published 2017)
